Measured values from the nanobody polyreactivity screen of Harvey et al. (2022).

Assay: yeast display, Sf9 membrane polyspecificity reagent, FACS + sequencing; frameworks hold sequencing errors
Procedure, shortened: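 A synthetic nanobody library was expressed on Saccharomyces cerevisiae BJ5465 by galactose induction for 36–48 hours. The library was stained for 1 hour at 4 °C with 10% biotinylated, detergent-solubilized Sf9 membrane reagent and enriched with streptavidin microbeads before FACS. Low and high (top ~1%) gates were set on anti-HA fluorescence for expression and streptavidin fluorescence for reagent binding, and each polyreactivity label reflects the gate of origin.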

Sequence	polyreactivity (PSR sort gate)
QVQLVESGGGLVQAGGSLRLSCAASGLTFYGYGMGWYRQAPGKERELVASITSGGNTYYADSVKGRFTISRDNAKNTVYLKMNSLKPEDTAVYYCAVTAIALYYSSGYYWGQGTQVTVSS	low polyreactivity
QVQLVESGGGLVQAGGSLRLSCAASGLTFYHYAMGWYRQAPGIERELVAAISYSGSRTYYADSVKGRFTISRDTAKNTVYLQMNSLKPEVTAVYYCAAKRTKEYDYWGQGTQVTVSS	high polyreactivity
QVQLVESGGGLVQAGGSLRLSCAASGLTFYHYHMGWYRQAPGKERELVAAITIGGSTYYADSVKGRFTISRDNAKNTVYLQMNSLKPEDTEVYYCAAEPQRDSSGLDYWGQGTQVTVSS	low polyreactivity
QVQLVESGGGLVQAGGSLRLSCAASGLTFYIYAMGWSRQAPGKERELVAGISWIGGRTYYADSVKGRFTISRDNAKNTVYLQLNSLKPEDTAVYYCIAYLSYTSRGRYYKYDYWGQGTQVTVSS	high polyreactivity
QVQLVESGGGLVQAGGSLRLSCAASGLTFYIYAMGWYRQAPGKEREFVAAIRRSDARTYYADSVKGRFTISRDNAKNTVYLQMNSLKPEDTAVYYCARPPWFTGYNSGYWGQGTQVTVSS	high polyreactivity
QVQLVESGGGLVQAGGSLRLSCAASGLTFYIYAMGWYSQAPGKERELVAAVSNGGGNTYYADSVKGRCTISRDNAKNTVYLQMNSLKPEDTAVYYCAAKNDYVYPINPLYYYWGQGTQVTVSS	high polyreactivity
QVQLVESGGGLVQAGGSLRLSCAASGLTFYLYAMGWNRQAPGKERELVAAINSRGGNTYYADSVKGRFTISRDNAKNTVYLQMNSLKPEDTAVYYCNAGRTFYSYAYGYWGQGTQVTVSS	high polyreactivity
QVQLVESGGGLVQAGGSLRLSCAASGLTFYPNAMGWYRQAPGKEREFVASISISGRTYYADSVKGRFTISRDNAKNTVYLQMNSLKPEDTAVYYCAARYVRSGLYRKYDYWGQGTQVTVSS	high polyreactivity
QVQLVESGGGLVQAGGSLRLSCAASGLTFYQYAMGWSRQAPGKERELVAAISKSAGSTYYADSVKGRFTISRDNAKNTVYLQMNSLKPEDTAVYYCAARVLRLRYDYWGQGTQVTVSS	high polyreactivity
QVQLVESGGGLVQAGGSLRLSCAASGLTFYSNAMGWYRQAPGKERELVARISTGGSTYADSEKGRFTISRDNAKNTVYLQMNSLKPEDTSFFYCAKLPPRGIDDEYWGQGTQVTVSS	low polyreactivity
QVQLVESGGGLVQAGGSLRLSCAASGLTFYSYAMGWYRQAPGKERELVAAITSSDGSTYYADSVKGRFTISRDNAKNTVYLQMNSLKPEDTAVYYCNKDDNSYGLNYWGQGTQVTVSS	low polyreactivity
QVQLVESGGGLVQAGGSLRLSCAASGLTFYSYARGWYRQAPGKERELVATISGGGSTTYADSVKGRFTISRDNAKNTVYLQMNSLKPEDTAVYYCAAGYFLPVVWSTTNYIYDYWGQGTQVTVSS	high polyreactivity
QVQLVESGGGLVQAGGSLRLSCAASGLTFYTYAMGWYRQAPGKERELVAAISTNGGSTYADSVKGRFTISRDNAKNTVYLQMNSLKPEDTAVYYCAAVYRTTRYGYWGQGTQVTVSS	low polyreactivity
QVQLVESGGGLVQAGGSLRLSCAASGLTFYVYAMGWYRQAPGKERELVAAINWSGGNTYYADSVKGRFTISRDNAKNTVYLQMNSLKPEDTAVYYCAAELYYPVGFDYWGQGTQVTVSS	high polyreactivity
QVQLVESGGGLVQAGGSLRLSCAASGLTFYVYAMGWYRQAPGKERELVAAISSGGRTYYADSVKGRFTISRDNAKNTVYLQMNSLKPEDTAVYYCAAVRHRNYWGQGTQVTVSS	high polyreactivity
QVQLVESGGGLVQAGGSLRLSCAASGLTFYWYVMGWYRQAPGKERELVAAITGGGSSTYYADSVKGRFTISRDNAKNTVYLQMNSLKPEDTAVYYCAADYRGGIRYYRGAAYNYWGQGTQVTVSS	high polyreactivity
QVQLVESGGGLVQAGGSLRLSCAASGLTFYYYAMGWYRQAPGKERELVATITSSGARTYYADSVKGRFTISRDNAKNTVYLQMNSLKPEDTEVYYCAADYGIWQRGSHYWDMDYWGQGTQVTVSS	high polyreactivity
QVQLVESGGGLVQAGGSLRLSCAASGLTFYYYDMGWYRQAPGKERELVAAITSGGSSTYYADSVKGRITISRDNAKNTVYLQMNSLKPEDTAVYYCNADSPYIPYIYDYWGQGTQVTVSS	low polyreactivity
QVQLVESGGGLVQAGGSLRLSCAASGLTFYYYVMGWYRQAPGKERELVAAINATGGRTYYADSVKGRFTISRDNAKNTVYLQMNSLKPEDTAVYYCAAYSGFYASYDYWGQGTLVTVSS	low polyreactivity
QVQLVESGGGLVQAGGSLRLSCAASGLTIFVNAMGCYRQAPGKERELVATISGGGSTYYADSVKGRFTISRDNAKNTVYLQMNSLKPEDTAVYYCNADVLFYTYYTRGRFDFDYWGQGTQVTVSS	low polyreactivity
QVQLVESGGGLVQAGGSLRLSCAASGLTIGYYAMGWYRQAPGKERELVATITWRGVRTYYADSVKGRFTISRDNAKNTVYLQMNSLKPEDTAVYYCDKGYWSKGERWFGGFGYWGQGTQVTVSS	low polyreactivity
QVQLVESGGGLVQAGGSLRLSCAASGLTINGNTMGLYRQAPGKERELVAVIDWSGGSTYYADSVKGRFTISRDNAKNTVYLQMNSLKPEDTAVYYCNAETRDPILYGEYDYWGQGTQVTVSS	low polyreactivity
